Results as given in patent publication US20090191571A1.

B1: Peptide reagent SEQ ID NO:104 (peptide)
peptide: GGGAKRPKPGG
modifications: not checked
B2: Peptide reagent SEQ ID NO:105 (peptide)
peptide: GGGKARPKPGG
modifications: not checked
B3: Peptide reagent SEQ ID NO:107 (peptide)
peptide: GGGKKRPAPGG
modifications: not checked
B4: Peptide reagent SEQ ID NO:106 (peptide)
peptide: GGGKKAPKPGG
modifications: not checked
B5: Peptide reagent SEQ ID NO:71 (peptide)
peptide: PHGGGWGQ
modifications: not checked
B6: Peptide reagent SEQ ID NO:72 (peptide)
peptide: GGGKKRPKPGGGKKRPKPGG
modifications: not checked
B7: Peptide reagent SEQ ID NO:65 (peptide)
peptide: KKKAGAAAAGAVVGGLGG
modifications: not checked
B8: Peptide reagent SEQ ID NO:80 (peptide)
peptide: GGGKPSKPK
modifications: not checked
B9: Peptide reagent SEQ ID NO:79 (peptide)
peptide: GGGNKPSKPK
modifications: not checked
B10: Peptide reagent SEQ ID NO:54 (peptide)
peptide: GGTHNQWNKPSKPKTN
modifications: not checked
B11: Peptide reagent SEQ ID NO:73 (peptide)
peptide: GGGGPKRKGPK
modifications: not checked
B12: Peptide reagent SEQ ID NO:98 (peptide)
peptide: GGGKKRAKAGG
modifications: not checked
B13: Peptide reagent SEQ ID NO:53 (peptide)
peptide: GGWGQGGGTHNQWNKPSKPKTN
modifications: not checked
B14: Peptide reagent SEQ ID NO:56 (peptide)
peptide: GGGAGAAAAGAVVGGLGG
modifications: not checked
B15: Peptide reagent SEQ ID NO:85 (peptide)
peptide: GGGKKKKKKKK
modifications: not checked

molecular target: T1, PrP^Sc (pathogenic mouse prion protein, RML, in infected Balb-c mouse brain homogenate) (mouse), P04925

Binder | ELISA A405nm [A405nm]
B1 | 0.273
B2 | 0.256
B3 | 0.578
B4 | 0.268

molecular target: T1, PrP^Sc (pathogenic mouse prion protein, …); remark: another data set of the same source

Binder | ELISA A405nm [A405nm]
B5 | 0.263
B6 | 0.522
B7 | 0.635
B8 | 0.225
B9 | 0.24
B10 | 0.253
B11 | 1.06
B12 | 1.46
B13 | 0.254
B14 | 0.313
B15 | 0.53
